Experimental data taken from publication PMC7658359.

Experiments:
[1] = molecular target: Arabidopsis histone H2A (HTA1)-H2B (HTB1) dimer (Arabidopsis thaliana) (UniProt Q9LD28); test: ITC; MicroCal iTC200; OsChz1-C or its mutants injected into histone H2A-H2B or H2A.Z-H2B solutions; 19 injections of 2 μl
[2] = molecular target: Arabidopsis histone variant H2A.Z (HTA9)-H2B (HTB1) dimer (Arabidopsis thaliana) (UniProt Q9C944); test: as above
[3] = molecular target: Arabidopsis histone H2A (HTA1)-H2B (HTB1) dimer, Q9LD28;Q9LQQ4; test: ITC

Sequence of Arabidopsis histone H2A (HTA1)-H2B (HTB1) dimer (Arabidopsis thaliana) (Q9LD28 whole entry, chain 1 of 2): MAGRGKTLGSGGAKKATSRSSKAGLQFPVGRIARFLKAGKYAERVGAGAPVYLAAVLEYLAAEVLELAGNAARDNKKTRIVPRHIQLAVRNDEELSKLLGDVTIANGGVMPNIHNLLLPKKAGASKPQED
Sequence of Arabidopsis histone H2A (HTA1)-H2B (HTB1) dimer (Arabidopsis thaliana) (Q9LQQ4 whole entry, chain 2 of 2, further chain): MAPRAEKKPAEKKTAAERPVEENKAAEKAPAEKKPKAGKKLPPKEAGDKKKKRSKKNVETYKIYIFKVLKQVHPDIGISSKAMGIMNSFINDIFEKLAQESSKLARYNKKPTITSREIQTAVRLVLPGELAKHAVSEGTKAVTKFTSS

Row | Kd [2] [µM] | Substance | Kd [1] [µM] | Kd [3] [µM]
1 | 0.0641 | OsChz1-C (OsChz1 338–471), wild type (domain or fragment) | 0.0098 | 
2 |  | OsChz1-C (OsChz1 338–471), wild type 1M |  | 0.15
3 |  | OsChz1-C (OsChz1 338–471), wild type 2M |  | 0.259
4 |  | OsChz1-C (OsChz1 338–471), wild type 3M |  | 0.146
